{"source": "patent US8153413B2", "about": "“High alkaline protease and use thereof” (Japan Agency for Marine-Earth Science and Technology, priority 2004, dated 2012)", "molecules": {"B1": {"name": "alkaline protease ALTP: purified high alkaline protease from Alkaliphillus transvaalensis, mature enzyme amino acid sequence SEQ ID NO: 3 (protein, listed as Alkaliphillus transvaalensis)", "chain": "AQSTPWGVTRVQAPNVWNRGFTGSGVRVAVLDTGIHSSHEDLTVSGGYSVFGDSPYNDVQGHGTHVAGTIAARNNSVGVIGVAYNAQLYAVKVLNNQGSGTLAGIAQGIEWARQNNMHVINMSLGGTSGSTTLQNAVNAAYNAGILVVAAAGNSGNSAGTGDNVGFPARYPNAMAVAATTSGNVRASFSSTGPAVEIAAPGQDINSTYPTNTYRSLNGTSMAAPHVAGVAALLKSARPAVTAAGIRNAMNSTALNLGNSNWYGNGLVRANNALDMVLSY"}}, "key": {"invention enzyme": {"system": "invention enzyme", "assay": "Hydrolysis of natural proteins relative to casein", "type": "biochemical, Alkaliphillus transvaalensis"}, "casein [1]": {"system": "casein", "assay": "Optimum pH / active pH, casein method", "type": "biochemical", "settings": "1% (w/v) casein, 40° C., 15 minutes, highest activity in 50 mmol/L potassium chloride/sodium hydroxide buffer", "protocol": "1 ml of each 50 mmol/L buffer containing 1% (w/v) casein (Hammerstein, Merck) was warmed at 40° C. for 5 minutes, and 0.1 ml of the enzyme solution was then added. A reaction was conducted for from 15 to 20 minutes. Subsequently, 2 ml of a trichloroacetic acid solution (TCA solution: 0.11 mol/L trichloroacetic acid, 0.22 mol/L sodium acetate and 0.33 mol/L acetic acid) was added to terminate the reaction. The reaction solution was allowed to stand at room temperature for 10 minutes, and the acid-modified protein was filtered (No. 2 filter paper, manufactured by Watman). 2.5 ml of an alkaline copper reagent [1% (w/v) potassium sodium tartrate: 1% (w/v) copper sulfate: 2% (w/v) sodium carbonate/0.1 mol/L sodium hydroxide=1:1:100] was added to 0.5 ml of the filtrate, and the mixture was warmed at 30° C. for 10 minutes. Thereafter, 0.25 ml of a dilute phenol reagent [phenol reagent (manufactured by Kanto Kagaku) diluted twofold with deionized water] was added, and the mixture was warmed at 30° C. for 30 minutes. Absorbance at 660 nm was measured with a spectrophotometer to obtain an amount of an acid-soluble protein hydrolyzate. By the way, a system obtained by mixing the enzyme reaction system with a reaction terminator and adding the enzyme solution thereto was used as a blank.\nHerein, one unit (PU) of the enzyme referred to an amount of an enzyme in which to liberate the acid-soluble protein hydrolyzate corresponding to 1 μmol of tyrosine for 1 minute under the foregoing reaction conditions.\nThe invention enzyme was reacted at 40° C. for 15 minutes in various buffers of pH 3.5 to 12.6 containing 1% (w/v) casein as a substrate, and the enzymatic activity at each pH was measured. The results thereof are shown in FIG. 1A in terms of relative activity when the highest activity was defined as 100%.\nAcetate buffer ( ? ): pH 3.5 to 6.0, phosphate buffer (▪): pH 6.5 to 8.1, carbonate buffer (◯): pH 9.0 to 11.0, phosphate/sodium hydroxide buffer (●): pH 11.0 to 12.2, and potassium chloride/sodium hydroxide buffer (▴): pH 11.5 to 12.6."}, "casein [2]": {"system": "casein", "assay": "Optimum temperature, casein method", "type": "biochemical", "settings": "for influence of Ca2+ / calcium chloride on optimum temperature: calcium chloride 5 mmol/L", "protocol": "0.1 ml of the invention enzyme solution was added to 1 ml of 50 mmol/L borate buffer (pH 10.0) containing 0.5% (w/v) casein as a substrate, and a reaction was conducted at a temperature of from 30 to 85° C. for 15 minutes. Activity was measured by the casein method. Relative activity at each temperature is shown in FIG. 2A in which activity in the absence of calcium chloride at 50° C. is defined as 100%. “●” indicates relative activity in the absence of calcium chloride, and “∘” relative activity in the presence of calcium chloride."}, "acidic insulin B-chain": {"system": "acidic insulin B-chain", "assay": "Cleavage of acidic insulin B-chain (LC/MS/MS)", "type": "biochemical", "settings": "30° C.", "protocol": "3 ng of alkaline protease ALTP was added to a solution obtained by adding 0.1 mg of insulin B-chain to 100 μl of 0.1 mol/L Tris-hydrochloride buffer (pH 8.0), and a reaction was conducted at 30° C. for from 1 to 5 minutes. 5 μl of the solution was collected after 1 minute, 2 minutes and 5 minutes from the start-up of the reaction, and the reaction was terminated by addition of 50 μl of a 2% (v/v) acetonitrile/0.1% trifluoroacetic acid solution (pH 2.2). The reaction solutions were analyzed by liquid chromatograph/tandem mass analyzer (LC/MS/MS). A mixture of fragmental peptides digested with alkaline protease ALTP of the invention was separated and concentrated by capillary HPLC, and ionized to obtain MS and MS/MS spectra. The MS/MS data of the peptides was subjected to Turbo Sequest search to identify the digested acidic insulin B-chain fragments and determine the cleavage sites. Because of the search with the MS/MS data, the highly reliable identification results were obtained.\nA reaction was conducted at 30° C. for 24 hours under the same conditions as in (i) by changing the concentration of alkaline protease ALTP to 300 ng. After the termination of the reaction, the acidic insulin B-chain fragment digested with alkaline protease ALTP was identified by the foregoing method to determine cleavage sites. […]"}, "[3]": {"assay": "Thermostability, residual activity after heat treatment by casein method", "type": "physicochemical", "settings": "for influence of Ca2+ / calcium chloride on thermostability: calcium chloride 5 mmol/L", "protocol": "The invention enzyme was added to 50 mmol/L borate buffer (pH 10.0), and heat treatment was conducted at each temperature of from 30 to 75° C. for 10 minutes. The residual activity was measured by the casein method. The residual activity after the heat treatment is shown in FIG. 2B in which activity before the heat treatment is defined as 100%."}, "[4]": {"settings": "listed as novel alkaline protease"}}, "data": [{"molecule": "hemoglobin", "values": [{"measurement": "hydrolytic activity, casein defined as 100%", "setting": "invention enzyme", "result": "approximately 73%"}]}, {"molecule": "B1", "values": [{"measurement": "optimum pH", "setting": "casein [1]", "result": 12.6}, {"measurement": "optimum pH", "setting": "casein [1]; listed as invention enzyme", "result": "approximately 12.6"}, {"measurement": "optimum pH", "setting": "casein [1]; [4]", "result": "approximately 12.6"}, {"measurement": "optimum temperature", "setting": "casein [2]; borate buffer pH 10.0, casein, 15 minutes", "result": 70, "unit": "°C"}, {"measurement": "influence of Ca2+ / calcium chloride on optimum temperature", "setting": "casein [2]", "result": "little influenced"}, {"measurement": "influence of Ca2+ / calcium chloride on optimum temperature", "setting": "casein [2]; listed as invention enzyme", "result": "unchanged"}, {"measurement": "influence of Ca2+ / calcium chloride on optimum temperature", "setting": "casein [2]; [4]", "result": "still unchanged"}, {"measurement": "bond cleaved first / at the initial stage", "setting": "acidic insulin B-chain; 3 ng ALTP, within 5 minutes", "result": "Leu-Tyr"}, {"measurement": "peptide bonds of 29 peptide bonds cleaved", "setting": "acidic insulin B-chain; 300 ng ALTP, within 24 hours", "result": 26}, {"measurement": "influence of Ca2+ / calcium chloride on thermostability", "setting": "[3]", "result": "No improvement"}, {"measurement": "influence of Ca2+ / calcium chloride on thermostability", "setting": "[3]; listed as invention enzyme", "result": "unchanged"}, {"measurement": "influence of Ca2+ / calcium chloride on thermostability", "setting": "[3]; [4]", "result": "still unchanged"}, {"measurement": "temperature up to which stable without activity drop by heating", "setting": "[3]; pH 10 for 10 minutes", "result": "up to 65 °C"}]}]}
